According to the RNAGym collection of RNA variant scans (doi:10.1073/pnas.2313332121):

B1: TPR t1 (parent)
chain: GACCAAUCUGCCCUCAGAGCUCGAGAACAUCUUCGGAUGCAGAGGAGGCAGGCUUCGGUGGCGCGAUAGCGCCAACGUCCUCAACCUCCAAUGCAUCCCACCACAUGAUGAUGCCUGAAGAGCCUUGGUUUUUUG

Variants of: B1
Test: polymerase ribozyme fitness, log enrichment relative to wild type (log ratio); higher = more active; in vitro selection for triplet polymerase activity
Summary of the method: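 In triplicate, a single round of in vitro selection was run on each mutant library, PCR-built and transcribed, covering one subunit of a heterodimeric triplet polymerase ribozyme. Frozen incubation at −7 °C followed annealing with a biotinylated primer, partner subunit and triplets, and extended constructs were then gel-excised, streptavidin-captured and taken through RT-PCR. Fitness is the logarithm of genotype enrichment over wild-type enrichment, from inverse-variance-weighted replicate averages of Illumina-sequenced inputs and outputs. […] only genotypes with ≥10 input reads and ≥1 read per output were kept.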

Variant | polymerase ribozyme fitness (log ratio)
U7A C73A C88G A111U U129G | -6.86
U7A C64U C89G A91U C97U C115U | -2.72
A6U A46C C85G G113A G135C | -3.74
A6U G135U | -0.769
A6C C15U G63C | -2.01
U7A U33A A100G G120C G135A | -3.75
U7C C8G C53G C101A | -0.517
A6U U7C A41G G110A | -1.88
U7A G39A G52A | 0.0728
U7C A27G U92A | -3.82
U7A C15G C88U C124U | 0.702
U7A C8U G107C C124U | -4.43
A6U A27U G63A A121G U130A | -2.41
A6G G60U U78C C104A U109A | -5.54
A6G G71A C101A | -3.04
A6U C12A G61U | 0.0933
U7A U9C C12U G57C | 0.0479
U7A U92A G120A U133A | -0.782
A6U G69A C124A | -1.22
A6G C12G A46U A50U C56U C73A | -2.15
U7C G45U G110C | -5.16

Variant | polymerase ribozyme fitness (log ratio)
A6U A26U G36C G63C | -5.14
A6G C98U | -1.69
A6U A46U C115A | -2.18
U7C U87C U92G G122A C123U | -1.22
A6U C15G U33A G63A G93A G113U | -6.39
U7C C8U C20A G71A G93U | -5.59
A6U C8G C13U C20U G51A G61U | -4.27
A6C C8U C89U | -0.206
A6U A16U A46C C56G | -2.72
A6U G61C | -1.18
U7A C82A U116C C123A | -2.73
U7C G42C C88U C115U U133A | -0.576
U7C A37U A41C G47U C53G G65A C85G A95C A111G A118U | -7.71
A6U G36A | -0.596
A6C C11U G61U G113U | -4.99
U7A C70U | -0.0171
A6U A84U G110U | -1.45
A6U C70A | -0.922
A6C U9G G69U A83G A91C G117U | -0.828
A6C A43U A83U C98U C104U | -2.52
A6C G42U G63C C79U | -2.06

Variant | polymerase ribozyme fitness (log ratio)
A6U G52U C53G G128C | -3.38
U7C C13U G60A A105U | -1.71
A6G C22A G48U G110U | -6.03
A6C C56U A83C U112G | -1.14
U7C C11G A16G G52U U59G C72U | -0.58
U7A C72G C88A C89G C102A G107A G113A | -6.44
A6G C15U C49A C53A G71U U78A | -0.614
A6G G39U | -0.397
A6U G23A G69C C115A U126A U131G | -6.34
A6C C12A | -1.61
U7C C12A C13A G17A A27C C115U | -5.21
A6C G61U U87A | -0.857
A6G G44C U112C | 0.311
U7C G69A | -2.74
U7A C56G C101U | 0.801
U7C C8G C12U G19C G63A A66U C115A G128C | -4.6
U7A C40U G48U C53G C85A A119U | -0.816
U7A G25A G42U A50U G61A C85G A90C C123U U133G | -8.16
U7C G42C U87A | -1.73
A6G A41C G57U G60A A100U | -2.82
U7A C70U G77U U92C G117C | -5.47

Variant | polymerase ribozyme fitness (log ratio)
A6U A68G A75U U92A C123A | -4.87
U7A U21C G71U A90G | -0.779
A6C G117U U126A U131C | -6.38
A6G G51A | -2.27
A6U A84C C86G G93U | -2.38
A6U A26C C34G C64G A111U | -7.61
U7A U81G G122A | -5.92
A6U G19U A121U | -1.67
U7A U21G A75G | -1.8
A6U A26G G52A G71U | -3.21
U7A G61C A91C C114A C115G | -7.29
A6C G71C | -1.18
A6U C20A G61U U125G | -2.23
U7A C13U G71A C115U G128A | -2.21
A6G C13G G51A C79G C88A G93C A108U C115U C124U | -7.39
A6G U112G C114G A119G U131C | -5.15
A6U C94A U96G | -3.1
A6U C49A C53A C79A C85U A111C | -3.36
A6C G71C G113U | -4.81
A6G C72A C79A C102U A118U | -2.3
A6G A18U C40G G42U U81C | -4.14
